Experimental data from patent publication US20090149339A1 (published 2009).
Ends that are not written are not given here. * marks the point of attachment. Biotin = O=C1N[C@H]2[C@H](CS[C@H]2CCCCC(=O)*)N1

Tests used:
[1] = molecular target: T1, GST-KIAA0559 PDZ domain fusion protein (KIAA0559 AA766-870; PDZ1 of 1) (UniProt P08515 1-218 = GST); experiment: A/G assays
T1 construct: also called K559

[2] = molecular target: T2, GST-MPP2 PDZ domain fusion protein (maguk p55 subfamily member 2 (DLG2) AA185-273; PDZ domain 1 of 1) (UniProt P08515 1-218 = GST); experiment: A/G assays
T2 construct: also called MMP2

[3] = molecular target: T3, GST-NeDLG PDZ domain fusion protein (presynaptic protein sao102, neuroendocrine-dlg; PDZ domains 1-2 of 3) (UniProt P08515 1-218 = GST); experiment: A/G assays
T3 construct: also called NeDLG1

[4] = molecular target: T4, GST-PSD95 PDZ domain fusion protein (human post-synaptic density protein 95 AA387-724; PDZ domains 1-3 of 3) (human, UniProt P08515 1-218 = GST); experiment: A/G assays
[5] = molecular target: T5, GST-PTN-4 PDZ domain fusion protein (protein-tyrosine phosphatase meg1 AA774-862; PDZ domain 1 of 1) (UniProt P08515 1-218 = GST); experiment: A/G assays
[6] = molecular target: T6, GST-CBP PDZ domain fusion protein (Cytohesin binding protein HE AA85-175; PDZ domain 1 of 1) (UniProt P08515 1-218 = GST); experiment: A/G assays
T6 construct: also called Prot

[7] = molecular target: T7, GST-TAX33 PDZ domain fusion protein (tax interaction protein 33 AA73-162; PDZ domain 1 of 1) (UniProt P08515 1-218 = GST); experiment: A/G assays
T7 construct: also called TX33

[8] = molecular target: GST-LIMK2 PDZ domain fusion protein (human LIM domain kinase 2 AA185-275; PDZ domain 1 of 1) (human, UniProt P08515 1-218 = GST); experiment: A/G assays
[9] = molecular target: T8, GST-SYN1a PDZ domain fusion protein (alpha1-syntrophin AA96-189; PDZ domain 1 of 1) (UniProt P08515 1-218 = GST); experiment: A/G assays
T8 construct: also called SYN 1 alpha; SYNTR 1 alpha

[10] = molecular target: GST-MINT3 PDZ domain fusion protein (human MINT3 AA11-52; PDZ domain 1 of 1) (human, UniProt P08515 1-218 = GST); experiment: A/G assays
[11] = molecular target: T9, GST-TIAM1 PDZ domain fusion protein (T-lymphoma invasion and metastasis inducing protein 1 AA1001-1088); PDZ 1 … (UniProt P08515 1-218 = GST); experiment: A/G assays
[12] = molecular target: GST-prIL16 PDZ domain fusion protein (putative interleukin 16 precursor AA170-383; PDZ domains 1-2 of 2) (UniProt P08515 1-218 = GST); experiment: A/G assays
[13] = molecular target: T10, GST-TAX43 PDZ domain fusion protein (human tax interaction protein 43 AA15-85; PDZ domain 1 of 1) (human, UniProt P08515 1-218 = GST); experiment: A/G assays
T10 construct: also called TX 43

[14] = molecular target: GST-NOS1 PDZ domain fusion protein (human neuronal nitric oxide synthase; PDZ domain 1 of 1) (human, UniProt P08515 1-218 = GST); experiment: A/G assays
[15] = molecular target: GST-DVL1 PDZ domain fusion protein (human dishevelled segment polarity protein homolog AA248-340); PDZ domain … (human, UniProt P08515 1-218 = GST); experiment: A/G assays
[16] = molecular target: T11, GST-LIM PDZ domain fusion protein (Human LIM protein AA29-112; PDZ domain 1 of 1) (human, UniProt P08515 1-218 = GST); experiment: A/G assays
[17] = molecular target: T12, GST-KIAA0316 PDZ domain fusion protein (KIAA0316 AA197-284; PDZ domain 1 of 1) (UniProt P08515 1-218 = GST); experiment: A/G assays
T12 construct: also called K316

[18] = molecular target: T13, GST-KIAA0303 PDZ domain fusion protein (KIAA0303 AA652-742; PDZ domain 1 of 1) (UniProt P08515 1-218 = GST); experiment: A/G assays
T13 construct: also called K303

[19] = molecular target: T14, GST-AF6 PDZ domain fusion protein (af-6 protein AA985-1077; PDZ domain 1 of 1) (UniProt P08515 1-218 = GST); experiment: A/G assays
[20] = molecular target: T15, GST-CASK PDZ domain fusion protein (CASK AA495-584; PDZ domain 1 of 1) (mouse, UniProt P08515 1-218 = GST); experiment: A/G assays
T15 construct: also called mCASK

[21] = molecular target: T16, GST-TAX2 PDZ domain fusion protein (human tax interaction protein 2 AA54-140; PDZ domain 1 of 1) (human, UniProt P08515 1-218 = GST); experiment: A/G assays
T16 construct: also called TX 2

[22] = molecular target: T17, GST-TAX40 PDZ domain fusion protein (human tax interaction protein 40 AA35-137; PDZ domain 1 of 1) (human, UniProt P08515 1-218 = GST); experiment: A/G assays
T17 construct: also called TX 40

[23] = molecular target: T18, GST-RGS12 PDZ domain fusion protein (human regulator of G-protein signalling 12 AA35-103; PDZ domain 1 of 1) (human, UniProt P08515 1-218 = GST); experiment: A/G assays
T18 construct: also called RSG12

[24] = molecular target: T19, GST-MPP1 PDZ domain fusion protein (55 Kd erythrocyte membrane protein AA101-186; PDZ domain 1 of 1) (UniProt P08515 1-218 = GST); experiment: A/G assays
[25] = molecular target: T20, GST-41.8 kD PDZ domain fusion protein (hypothetical 41.8 kD protein AA4-85; PDZ domain 1 of 1) (UniProt P08515 1-218 = GST); experiment: A/G assays
T20 construct: also called hypoth

[26] = molecular target: T3, GST-NeDLG PDZ domain fusion protein …; experiment: A assay
[27] = molecular target: T20, GST-41.8 kD PDZ domain fusion protein …; experiment: A assay
[28] = molecular target: T9, GST-TIAM1 PDZ domain fusion protein …; experiment: A assay
[29] = molecular target: T13, GST-KIAA0303 PDZ domain fusion protein …; experiment: A assay
[30] = molecular target: T19, GST-MPP1 PDZ domain fusion protein (55 …); experiment: A assay
[31] = molecular target: T4, GST-PSD95 PDZ domain fusion protein …; experiment: A and G assays
[32] = molecular target: T11, GST-LIM PDZ domain fusion protein …; experiment: A assay
[33] = molecular target: T14, GST-AF6 PDZ domain fusion protein (af-6 …); experiment: A assay
[34] = molecular target: T18, GST-RGS12 PDZ domain fusion protein …; experiment: A assay
[35] = molecular target: T2, GST-MPP2 PDZ domain fusion protein …; experiment: G assay
[36] = molecular target: T20, GST-41.8 kD PDZ domain fusion protein …; experiment: A/G assays; remark: listed apart in the source
[37] = molecular target: T5, GST-PTN-4 PDZ domain fusion protein …; experiment: G assay
[38] = molecular target: T18, GST-RGS12 PDZ domain fusion protein …; experiment: G assay

T4 sequence (P08515 1-218, tags or fused parts left off): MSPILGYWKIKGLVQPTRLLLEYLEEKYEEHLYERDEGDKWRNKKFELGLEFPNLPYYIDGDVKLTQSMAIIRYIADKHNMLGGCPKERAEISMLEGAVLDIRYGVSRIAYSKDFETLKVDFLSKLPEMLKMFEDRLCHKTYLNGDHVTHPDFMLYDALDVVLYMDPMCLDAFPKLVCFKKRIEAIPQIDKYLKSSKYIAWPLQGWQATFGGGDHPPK
T1 sequence (P08515 1-218, tags or fused parts left off): as above
T10 sequence (P08515 1-218, tags or fused parts left off): as above
T3 sequence (P08515 1-218, tags or fused parts left off): as above
T12 sequence (P08515 1-218, tags or fused parts left off): as above
T16 sequence (P08515 1-218, tags or fused parts left off): as above
T6 sequence (P08515 1-218, tags or fused parts left off): as above
T17 sequence (P08515 1-218, tags or fused parts left off): as above
T5 sequence (P08515 1-218, tags or fused parts left off): as above
Sequence of GST-prIL16 PDZ domain fusion protein (putative interleukin 16 precursor AA170-383; PDZ domains 1-2 of 2) (P08515 1-218, tags or fused parts left off): as above
T7 sequence (P08515 1-218, tags or fused parts left off): as above
T20 sequence (P08515 1-218, tags or fused parts left off): as above
T15 sequence (P08515 1-218, tags or fused parts left off): as above
T18 sequence (P08515 1-218, tags or fused parts left off): as above
T14 sequence (P08515 1-218, tags or fused parts left off): as above
T9 sequence (P08515 1-218, tags or fused parts left off): as above
T19 sequence (P08515 1-218, tags or fused parts left off): as above
T11 sequence (P08515 1-218, tags or fused parts left off): as above
T2 sequence (P08515 1-218, tags or fused parts left off): as above
Sequence of GST-LIMK2 PDZ domain fusion protein (human LIM domain kinase 2 AA185-275; PDZ domain 1 of 1) (P08515 1-218, tags or fused parts left off): as above
Sequence of GST-DVL1 PDZ domain fusion protein (human dishevelled segment polarity protein homolog AA248-340); PDZ domain … (P08515 1-218, tags or fused parts left off): as above

Binder	binding result [1]	binding result [2]	binding result [4]	binding result [5]	binding result [6]	binding result [7]	binding result [8]	binding result [9]	binding result [10]	binding result [11]	binding result [12]	binding result [13]	binding result [14]	binding result [15]	binding result [16]	binding result [17]	binding result [18]	binding result [20]	binding result [21]	binding result [22]	other results
Biotin-ENLAPVTTFGKTNGYIA [CD148 (DEP-1) C-terminal PL peptide AA19L (ends GYIA), biotinylated]	no binding	no binding	no binding	no binding	no binding	no binding	no binding	no binding	no binding	no binding	no binding	no binding	no binding	no binding	no binding	no binding	no binding	no binding	no binding	no binding	binding result [3]: no binding; binding result [19]: no binding; binding result [23]: no binding; binding result [24]: no binding; binding result [25]: no binding
Biotin-ARKANMKGSYSLVEAQKSKV (also called CD106) [VCAM1 C-terminal PL peptide AA17L, biotinylated]	no binding	no binding	no binding	no binding	no binding	no binding	no binding	no binding	no binding	–	no binding	no binding	no binding	no binding	no binding	no binding	–	no binding	no binding	no binding	binding result [26]: binds; binding result [27]: binds; binding result [28]: binds; binding result [29]: binds; binding result [30]: binds; binding result [19]: no binding; binding result [23]: no binding
Biotin-TREDIYVNYPTFSRRPKTRV [DNAM-1 C-terminal PL peptide AA22L, biotinylated]	no binding	–	–	no binding	no binding	no binding	no binding	no binding	no binding	no binding	no binding	no binding	no binding	no binding	–	no binding	no binding	no binding	no binding	no binding	binding result [31]: binds; binding result [26]: binds; binding result [27]: binds; binding result [32]: binds; binding result [33]: binds; binding result [34]: binds; binding result [30]: binds; binding result [35]: binds
Biotin-EVICYIEKPGVETLEDSVF [CDW125 (IL5R) C-terminal PL peptide AA28L, biotinylated]	no binding	no binding	no binding	–	no binding	no binding	no binding	no binding	no binding	no binding	no binding	no binding	no binding	no binding	no binding	no binding	no binding	no binding	no binding	no binding	binding result [3]: no binding; binding result [36]: no binding; binding result [19]: no binding; binding result [24]: no binding; binding result [37]: binds; binding result [38]: binds
